Changes are numbered by the printed parent chain.

For one assay, the target named is T1, ITGA2-His (human, UniProt P17301 30-1132, limits assumed).
T1 construct: also called ITGA2 protein; not shown: His tag
T1 sequence (looked up): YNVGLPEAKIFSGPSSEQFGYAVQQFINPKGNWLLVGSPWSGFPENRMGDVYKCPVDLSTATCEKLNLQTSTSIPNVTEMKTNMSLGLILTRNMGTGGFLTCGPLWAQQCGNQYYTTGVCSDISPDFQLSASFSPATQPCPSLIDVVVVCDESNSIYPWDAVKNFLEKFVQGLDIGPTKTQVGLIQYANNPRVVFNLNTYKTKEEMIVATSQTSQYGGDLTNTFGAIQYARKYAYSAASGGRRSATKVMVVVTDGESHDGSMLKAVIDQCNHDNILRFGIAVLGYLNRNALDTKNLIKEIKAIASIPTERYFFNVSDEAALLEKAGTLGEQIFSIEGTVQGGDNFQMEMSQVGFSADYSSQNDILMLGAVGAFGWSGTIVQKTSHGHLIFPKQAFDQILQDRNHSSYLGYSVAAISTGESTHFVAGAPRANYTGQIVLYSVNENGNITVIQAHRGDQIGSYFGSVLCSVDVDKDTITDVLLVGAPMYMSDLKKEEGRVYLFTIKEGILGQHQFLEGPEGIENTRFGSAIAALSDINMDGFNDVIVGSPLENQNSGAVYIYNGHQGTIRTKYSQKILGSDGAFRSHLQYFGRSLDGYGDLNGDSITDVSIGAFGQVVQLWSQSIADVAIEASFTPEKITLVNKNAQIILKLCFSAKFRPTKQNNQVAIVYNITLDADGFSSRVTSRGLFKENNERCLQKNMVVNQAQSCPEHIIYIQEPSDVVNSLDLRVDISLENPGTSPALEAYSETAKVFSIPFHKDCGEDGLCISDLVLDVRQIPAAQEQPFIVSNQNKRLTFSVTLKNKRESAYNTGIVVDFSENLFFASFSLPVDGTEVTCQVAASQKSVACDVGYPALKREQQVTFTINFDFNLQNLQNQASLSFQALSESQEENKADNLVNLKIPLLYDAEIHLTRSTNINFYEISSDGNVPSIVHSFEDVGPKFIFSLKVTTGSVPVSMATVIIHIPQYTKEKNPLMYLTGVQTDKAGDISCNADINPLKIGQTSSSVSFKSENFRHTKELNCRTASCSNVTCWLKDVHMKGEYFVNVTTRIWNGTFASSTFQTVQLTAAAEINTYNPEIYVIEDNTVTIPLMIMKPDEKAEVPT
Kind of assay: ELISA, plate coated with 2 ug/mL ITGA2-His, anti-human IgG-Fc-HRP detection. (In general: In an ELISA, binding on a coated surface is turned into a signal by an enzyme label.)

Assay [1] has as its target T2, ITGA2 protein on the surface of human tumor cells (HuCCT1, A431) (human, UniProt P17301 30-1181).
T2 construct: whole, on cells; Endogenously expressed on the cell lines; the cell line of each entry is named under assay or readout; also called Integrin alpha-2; ITGA2-positive HuCCT1 cells
T2 sequence (looked up): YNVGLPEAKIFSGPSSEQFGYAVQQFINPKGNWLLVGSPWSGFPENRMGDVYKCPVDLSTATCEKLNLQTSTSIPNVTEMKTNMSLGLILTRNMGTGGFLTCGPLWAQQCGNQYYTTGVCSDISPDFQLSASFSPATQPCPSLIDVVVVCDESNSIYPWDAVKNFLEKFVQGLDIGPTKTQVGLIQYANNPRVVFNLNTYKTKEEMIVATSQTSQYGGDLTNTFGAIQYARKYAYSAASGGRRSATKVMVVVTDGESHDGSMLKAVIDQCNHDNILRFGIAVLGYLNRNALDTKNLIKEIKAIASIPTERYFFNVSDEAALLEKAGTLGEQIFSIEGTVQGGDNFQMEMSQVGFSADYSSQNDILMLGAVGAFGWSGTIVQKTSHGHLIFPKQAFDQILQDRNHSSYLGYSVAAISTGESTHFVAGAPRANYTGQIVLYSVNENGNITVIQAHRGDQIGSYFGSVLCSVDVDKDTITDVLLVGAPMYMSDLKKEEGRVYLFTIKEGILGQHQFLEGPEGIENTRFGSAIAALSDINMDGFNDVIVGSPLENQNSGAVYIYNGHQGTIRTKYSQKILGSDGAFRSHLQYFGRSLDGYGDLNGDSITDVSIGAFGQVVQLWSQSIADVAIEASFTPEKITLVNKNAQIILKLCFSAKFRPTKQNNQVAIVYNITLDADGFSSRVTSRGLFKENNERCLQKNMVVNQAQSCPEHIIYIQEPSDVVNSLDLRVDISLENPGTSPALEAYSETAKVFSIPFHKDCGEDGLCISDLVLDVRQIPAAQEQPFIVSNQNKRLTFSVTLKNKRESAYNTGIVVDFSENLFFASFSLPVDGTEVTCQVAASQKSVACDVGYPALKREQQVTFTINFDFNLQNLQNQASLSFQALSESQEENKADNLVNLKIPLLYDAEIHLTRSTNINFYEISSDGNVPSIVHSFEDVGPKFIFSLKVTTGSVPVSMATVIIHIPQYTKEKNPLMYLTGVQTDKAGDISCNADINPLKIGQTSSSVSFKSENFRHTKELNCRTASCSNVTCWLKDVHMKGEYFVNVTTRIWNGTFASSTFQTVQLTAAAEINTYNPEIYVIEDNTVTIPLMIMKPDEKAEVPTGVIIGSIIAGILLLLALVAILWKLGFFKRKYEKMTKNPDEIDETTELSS
Kind of assay: flow cytometry on HuCCT1 cells, goat anti-human IgG (H+L) secondary antibody. A general note: In flow cytometry, cells or beads pass a laser one at a time.

B1: Humanized antibody FS002-A1 (antibody, V domains shown)
VH: QVQLVQSGAEVKKPGASVKVSCKASGYTFTSYYMHWVRQAPGQGLEWMGIINPSGGSTSYAQKFQGRVTMTRDTSTSTVYMELSSLRSEDTAVYYCARDISGSYQTDAFDIWGQGTMVTVSS
VL: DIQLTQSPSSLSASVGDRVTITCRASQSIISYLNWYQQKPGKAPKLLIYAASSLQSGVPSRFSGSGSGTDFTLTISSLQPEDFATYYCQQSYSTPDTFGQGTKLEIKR
notes: IgG1 heavy chain, kappa light chain; expressed in ExpiCHO-s cells, Protein A purified
As a reminder, the EC50 is the concentration needed to bring the measured effect to its halfway point. The low end stands for a more potent agent, the high end for a less potent agent. B1: the EC50 was determined as 0.029 nM in the assay with ITGA2-His and 0.653 nM in assay [1].

B2: Humanized antibody FS002-C15 (antibody, human IgG1, kappa, V domains shown)
VH: QLQLQESGPGLVKPSETLSLTCTVSGGSISSSSYYWGWIRQPPGKGLEWIGSIYYSGSTYYNPSLKSRVTISVDTSKNQFSLKLSSVTAADTAVYYCARLTIFGVVLYWGQGTLVTVSS
VL: EIVLTQSPATLSLSPGERATLSCQASQTFSDYLAWYQQKPGQAPRLLIYDASTRATGIPARFSGSGSGTDFTLTISSLEPEDFAVYYCQQRSHWPPGYTFGQGTRVEIKR
notes: IgG1 heavy chain, kappa light chain
Consider B2, for which the EC50 in the assay with ITGA2-His was determined as 0.044 nM; in assay [1] it was 2.13 nM.

B3: Humanized antibody FS002-C153 (antibody, human IgG1, lambda, V domains shown)
VH: QVQLQQWGAELVKPGASVKLSCTASGFNIKDTYMHWVKQRPEQGLEWIGRIDPANGNTKYDPKFQGKATITADTSSNTAYLQLSSLTSEDTAVYYCARSYYRYDGYFDVWGAGTMVTVSS
VL: QSALTQPASVSGSPGQSITISCTGTSSDVGGYNYVSWYQQHPGKAPKLMIYDVSNRPSGVSNRFSGSKSGNTASLTISGLQAEDEADYYCSSFTTITTRVFGGGTKLTVLG
notes: IgG1 heavy chain, lambda light chain
Regarding B3, the EC50 in the assay with ITGA2-His turned out to be 0.087 nM; in assay [1], 3.63 nM.

B4: Humanized antibody FS002-C375 (antibody, human IgG1, kappa, V domains shown)
VH: QVQLQESGPGLVKPSQTLSLTCTVSGGSISSGGYYWSWIRQHPGKGLEWIGYIYYSGSTYYNPSLKSRVTISVDTSKNQFSLKLSSVTAADTAVYYCARVGVALHYGMDVWGQGTTVTVSS
VL: EIVLTQSPATLSLSPGERATLSCRASQSVSSYLAWYQQKPGQAPRLLIYDASNRATGIPARFSGSGSGTDFTLTISSLEPEDFAVYYCQQRSNWPLTFGGGTKVEIKR
notes: as for B2
Regarding B4, the figures for the EC50 (with ITGA2-His; in assay [1]) were 0.073 nM and 2.17 nM, respectively.

B5: Humanized antibody FS002-C58 (antibody, human IgG1, kappa, V domains shown)
VH: EVQLLESGGGVVQPGRSLRLSCAASGFTFSSYAMHWVRQAPGKGLEWVAVISYDGSNKYYADSVKGRFTISRDNSKNTLYLQMNSLRAEDTAVYYCARGKYNWFDPWGQGTLVTVSS
VL: B4 VL with S30Y, Y32S, R45K, I58V, V85L, Q90H, S92Q, N93H
notes: as for B2
Consider B5, for which the values for the EC50 (with ITGA2-His; in assay [1]) were 0.279 nM and 9.48 nM, respectively.

B6: Humanized antibody FS002-C417 (antibody, human IgG1, kappa, V domains shown)
VH: EVQLVESGGVVVQPGGSLRLSCAASGFTFDDYTMHWVRQAPGKGLEWVSLISWDGGSTYYADSVKGRFTISRDNAKNTLYLQMNSLRAEDTAVYYCARDTGYAMDVWGQGTMVTVSS
VL: NIQMTQSPSSLSASVGDRVTITCRASQSISSYLNWYQQKPGKAPKLLIYAASSLQSGVPSRFSGSGSGTDFTLTISSLQPEDFASYYCQQSYSSWAFGQGTKVEIKR
notes: as for B2
Regarding B6, the EC50 with ITGA2-His came out at 0.156 nM; in assay [1], 68.4 nM.

B7: Humanized antibody FS002-C216 (antibody, human IgG1, kappa, V domains shown)
VH: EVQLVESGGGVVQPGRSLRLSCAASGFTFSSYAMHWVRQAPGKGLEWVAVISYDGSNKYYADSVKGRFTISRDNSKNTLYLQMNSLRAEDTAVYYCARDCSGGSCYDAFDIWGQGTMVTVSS
VL: EIVLTQSPATLSLSPGERATLSCRASQSVSSYLAWYQQKPGQAPRLLIYDASNRATGIPARFSGSGSGTDFTLTISSLEPEDFAVYYCQQRTNWLMYTFGQGTKLEIKR
notes: as for B2
For the molecule B7, the EC50 was 0.073 nM in the assay with ITGA2-His and 0.987 nM in assay [1].

B8: Humanized antibody FS002-C241 (antibody, human IgG1, lambda, V domains shown)
VH: RLQLQESGPGLVKPSETLSLTCTVSGGSISSSSYYWGWIRQPPGKGLEWIGSIYYSGSTYYNPSLKSRVTISVDTSKNQFSLKLSSVTAADTAVYYCARRYSYGRDAFDIWGQGTMVTVSS
VL: QSALTQPASVSGSPGQSITISCSGTSSDIGRYNYVSWYQQHPGKAPKLLIFDVSNRPSGVSNRFSGSKSGNTASLTISGLQAEDEADYYCSSYTSTVPYVFGTGTRVAVQG
notes: as for B3
With B8, the EC50 with ITGA2-His turned out to be 0.116 nM; in assay [1], 2.41 nM.

B9: Humanized antibody FS002-C330 (antibody, V domains shown)
VH: QLQLQESGPGLVKPSGTLSLTCAVSGGSISSSNWWSWVRQPPGKGLEWIGEIYHSGSTNYNPSLKSRVTISVDKSKNQFSLKLSSVTAADTAVYYCARAHSRYYYGLDYWGQGTLVTVSS
VL: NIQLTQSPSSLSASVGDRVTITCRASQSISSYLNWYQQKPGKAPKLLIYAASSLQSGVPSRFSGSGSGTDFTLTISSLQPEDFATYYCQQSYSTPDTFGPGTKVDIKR
notes: as for B2
B9: the EC50 amounted to 0.103 nM with ITGA2-His and 2.07 nM in assay [1].
